Measured values from article PMC6726835 (Cancer Science, 2019).

Biological target: Recombinant soluble form (amino acids 297-580) of human mesothelin (r-MSLN) (Homo sapiens, UniProt Q13421)
Test: BLI

Binder | Kd [nM]
89Zr-DFO-scFv H2a064 (scFv, V domains shown) VH: QVQLVQSGGGLVQPGRSLRLSCAASGFTFDDYAMHWVRQAPGKGLEWVSGISWNSGSIGYADSVKGRFTISRDNAKNSLYLQMNSLRAEDTALYYCAKDIGSSGWYGAFDIWGQGTTVTVSS VL: SYELTQPPSVSVSPGQTARITCSGDALPKHYASWYQQKPGQAPVLLIYKDTERPSGIPERFSGSSSGTTVTLTISGVQAEDEADYYCQSADSSVTVVFGGGTKLTVL | 78.2
Antihuman MSLN His-Tag scFv clone H2a064 (scFv, V domains shown) VH: QVQLVQSGGGLVQPGRSLRLSCAASGFTFDDYAMHWVRQAPGKGLEWVSGISWNSGSIGYADSVKGRFTISRDNAKNSLYLQMNSLRAEDTALYYCAKDIGSSGWYGAFDIWGQGTTVTVSS VL: SYELTQPPSVSVSPGQTARITCSGDALPKHYASWYQQKPGQAPVLLIYKDTERPSGIPERFSGSSSGTTVTLTISGVQAEDEADYYCQSADSSVTVVFGGGTKLTVL | 59.6
Antihuman MSLN His-Tag scFv clone H1a050 (scFv, V domains shown) VH: EVQLVQSGGGLVQPDRSLRLSCAASGFTFDDYAMHWVRQAPGKGLEWVSGISWNSGSIGYADSVKGRFTISRDNAKNSLYLQMNSLRAEDTALYYCAKDLGSYYGSGSGMDVWGQGTTVTVSS VL: SYELTQPPSVSVSPGQTARITCSGNALPKQYAYWYQQKPGQAPVLMIYKDSERPSGIPERFSGSSSGTTVTLTISGVQAEDEADYYCQSADSSHTYKVFGGGTKLTVL | 4.68
89Zr-DFO-scFv H1a050 (scFv, V domains shown) VH: EVQLVQSGGGLVQPDRSLRLSCAASGFTFDDYAMHWVRQAPGKGLEWVSGISWNSGSIGYADSVKGRFTISRDNAKNSLYLQMNSLRAEDTALYYCAKDLGSYYGSGSGMDVWGQGTTVTVSS VL: SYELTQPPSVSVSPGQTARITCSGNALPKQYAYWYQQKPGQAPVLMIYKDSERPSGIPERFSGSSSGTTVTLTISGVQAEDEADYYCQSADSSHTYKVFGGGTKLTVL | 46.2

Continued, values first:

Kd [nM] | Binder
114 | DFO-conjugated His-Tag scFv clone H2a064 (scFv, V domains shown) VH: QVQLVQSGGGLVQPGRSLRLSCAASGFTFDDYAMHWVRQAPGKGLEWVSGISWNSGSIGYADSVKGRFTISRDNAKNSLYLQMNSLRAEDTALYYCAKDIGSSGWYGAFDIWGQGTTVTVSS VL: SYELTQPPSVSVSPGQTARITCSGDALPKHYASWYQQKPGQAPVLLIYKDTERPSGIPERFSGSSSGTTVTLTISGVQAEDEADYYCQSADSSVTVVFGGGTKLTVL
3.38 | DFO-conjugated His-Tag scFv clone H1a050 (scFv, V domains shown) VH: EVQLVQSGGGLVQPDRSLRLSCAASGFTFDDYAMHWVRQAPGKGLEWVSGISWNSGSIGYADSVKGRFTISRDNAKNSLYLQMNSLRAEDTALYYCAKDLGSYYGSGSGMDVWGQGTTVTVSS VL: SYELTQPPSVSVSPGQTARITCSGNALPKQYAYWYQQKPGQAPVLMIYKDSERPSGIPERFSGSSSGTTVTLTISGVQAEDEADYYCQSADSSHTYKVFGGGTKLTVL
